These are literature values, as cited in article PMC11528372.

The pKa is the pH at which an ionisable group is half protonated.

Some targets named below: Asp97 (UniProt position 97, VFRYIDWLLTV); Asp121 (UniProt position 121, AYRYVDWLLTV); Asp85 (UniProt position 98, WARYADWLFTT); Asp74 (UniProt position 74, WGRYIDWVVTT).
Conditions in all cases: cited from earlier work

For “Green-absorbing proteorhodopsin (GPR) (uncultured marine gamma proteobacterium EBAC31A08)”, in the series with Asp97, the pKa was ~7.9. For “Gloeobacter rhodopsin (GR) (Gloeobacter violaceus PCC 7421)”, in the series with Asp121, the pKa was ~5.9. On to “Bacteriorhodopsin (BR) (Halobacterium salinarum)”, for which, in the series with Asp85, the pKa is listed as ~2.6.

As to “Cyanorhodopsin N2098R (Calothrix sp. NIES-2098 rhodopsin) (Calothrix sp. NIES-2098)”, the pKa with Asp74 is listed as <2.0.
